In the supplement of paper PMC9112550, “Optimization of the antimicrobial peptide Bac7 by deep mutational scanning” (BMC Biology, 2022):

Tested on: Escherichia coli TOP10
Experiment: shrunken log2 fold change of peptide-encoding DNA abundance (4.5 h post-induction vs induction); higher = less antimicrobial activity (less host growth inhibition)
Conditions: time post-induction: 4.5 h; library: site-saturation at positions 5, 18, 19, 20
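Also: peptides expressed intracellularly from a pBAD plasmid library in pooled LB shake-flask culture, induced with 0.3% L-arabinose, DNA abundance read by NGS, three biological replicates, DESeq2 with apeglm shrinkage.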

In order of rising “shrunken log2 fold change” value:
1. RRIRYRPPRLPRPRPRPQHNPRP  -1.13
2. RRIRYRPPRLPRPRPRPITMPRP  -1.13
3. RRIRIRPPRLPRPRPRPNINPRP  -0.918
4. RRIRYRPPRLPRPRPRPHALPRP  -0.656
5. RRIRPRPPRLPRPRPRPCKLPRP  -0.609
6. RRIRHRPPRLPRPRPRPRYVPRP  -0.585
7. RRIRFRPPRLPRPRPRPLKFPRP  -0.544
8. RRIRIRPPRLPRPRPRPVYAPRP  -0.517
9. RRIRFRPPRLPRPRPRPTKLPRP  -0.494
10. RRIRSRPPRLPRPRPRPGSQPRP  -0.492
11. RRIRNRPPRLPRPRPRPYYMPRP  -0.416
12. RRIRERPPRLPRPRPRPFEAPRP  -0.342
13. RRIRCRPPRLPRPRPRPNIVPRP  -0.34
14. RRIRARPPRLPRPRPRPNTHPRP  -0.309
15. RRIRYRPPRLPRPRPRPLDPPRP  -0.307
16. RRIRNRPPRLPRPRPRPYKFPRP  -0.286
17. RRIRNRPPRLPRPRPRPQFHPRP  -0.28
18. RRIRLRPPRLPRPRPRPCLMPRP  -0.266
19. RRIRIRPPRLPRPRPRPWKYPRP  -0.254
20. RRIRERPPRLPRPRPRPVVIPRP  -0.251
21. RRIRCRPPRLPRPRPRPCKYPRP  -0.227
22. RRIRTRPPRLPRPRPRPVLFPRP  -0.193
23. RRIRSRPPRLPRPRPRPWQCPRP  -0.19
24. RRIRSRPPRLPRPRPRPFLGPRP  -0.186
25. RRIRPRPPRLPRPRPRPWICPRP  -0.182
26. RRIRSRPPRLPRPRPRPSCQPRP  -0.175
27. RRIRFRPPRLPRPRPRPHPHPRP  -0.168
28. RRIRVRPPRLPRPRPRPMHLPRP  -0.167
29. RRIRLRPPRLPRPRPRPIMYPRP  -0.16
30. RRIRMRPPRLPRPRPRPYAMPRP  -0.155
31. RRIRMRPPRLPRPRPRPNTCPRP  -0.145
32. RRIRYRPPRLPRPRPRPKGSPRP  -0.143
33. RRIRVRPPRLPRPRPRPSETPRP  -0.14
34. RRIRLRPPRLPRPRPRPIMVPRP  -0.117
35. RRIRSRPPRLPRPRPRPVKLPRP  -0.104
36. RRIRIRPPRLPRPRPRPTSCPRP  -0.0992
37. RRIRERPPRLPRPRPRPQWKPRP  -0.0957
38. RRIRDRPPRLPRPRPRPAWYPRP  -0.0946
39. RRIRRRPPRLPRPRPRPCDTPRP  -0.092
40. RRIRLRPPRLPRPRPRPDMWPRP  -0.0873
41. RRIRRRPPRLPRPRPRPCNCPRP  -0.0759
42. RRIRVRPPRLPRPRPRPMLTPRP  -0.066
43. RRIRTRPPRLPRPRPRPRNGPRP  -0.0659
44. RRIRHRPPRLPRPRPRPQWFPRP  -0.0606
45. RRIRMRPPRLPRPRPRPMMHPRP  -0.0538
46. RRIRLRPPRLPRPRPRPIAQPRP  -0.0527
47. RRIRHRPPRLPRPRPRPYIRPRP  -0.0464
48. RRIRCRPPRLPRPRPRPQKMPRP  -0.0362
49. RRIRTRPPRLPRPRPRPGRTPRP  -0.0318
50. RRIRWRPPRLPRPRPRPMEIPRP  -0.0287
51. RRIRTRPPRLPRPRPRPHISPRP  -0.0286
52. RRIRYRPPRLPRPRPRPVTFPRP  -0.0285
53. RRIRARPPRLPRPRPRPHQAPRP  -0.0279
54. RRIRPRPPRLPRPRPRPTVPPRP  -0.0252
55. RRIRNRPPRLPRPRPRPDSFPRP  -0.0232
56. RRIRCRPPRLPRPRPRPLKTPRP  -0.0197
57. RRIRGRPPRLPRPRPRPDHHPRP  -0.0187
58. RRIRTRPPRLPRPRPRPMSFPRP  -0.0183
59. RRIRWRPPRLPRPRPRPTSFPRP  -0.0166
60. RRIRFRPPRLPRPRPRPNFMPRP  -0.0155
61. RRIRARPPRLPRPRPRPDEYPRP  -0.0116
62. RRIRKRPPRLPRPRPRPCSKPRP  -0.01
63. RRIRYRPPRLPRPRPRPNSGPRP  -0.01
64. RRIRYRPPRLPRPRPRPMIDPRP  -0.00999
65. RRIRYRPPRLPRPRPRPFGMPRP  -0.00968
66. RRIRCRPPRLPRPRPRPRKNPRP  -0.00471
67. RRIRVRPPRLPRPRPRPNEGPRP  -0.00311
68. RRIRERPPRLPRPRPRPTECPRP  -0.00173
69. RRIRNRPPRLPRPRPRPATWPRP  -0.000853
70. RRIRNRPPRLPRPRPRPMLQPRP  0.00157
71. RRIRWRPPRLPRPRPRPIFSPRP  0.0085
72. RRIRWRPPRLPRPRPRPQKRPRP  0.00899
73. RRIRFRPPRLPRPRPRPSALPRP  0.0201
74. RRIRFRPPRLPRPRPRPWGRPRP  0.0219
75. RRIRQRPPRLPRPRPRPGMVPRP  0.0259
76. RRIRWRPPRLPRPRPRPVVEPRP  0.0281
77. RRIRNRPPRLPRPRPRPQNCPRP  0.0292
78. RRIRIRPPRLPRPRPRPVLEPRP  0.0298
79. RRIRHRPPRLPRPRPRPYYEPRP  0.0317
80. RRIRIRPPRLPRPRPRPPFQPRP  0.0365
81. RRIRQRPPRLPRPRPRPNMFPRP  0.0369
82. RRIRMRPPRLPRPRPRPMIFPRP  0.0369
83. RRIRYRPPRLPRPRPRPQHWPRP  0.0376
84. RRIRYRPPRLPRPRPRPQQKPRP  0.0376
85. RRIRNRPPRLPRPRPRPRMGPRP  0.0394
86. RRIRTRPPRLPRPRPRPIGPPRP  0.0411
87. RRIRTRPPRLPRPRPRPNKMPRP  0.0425
88. RRIRARPPRLPRPRPRPYDLPRP  0.0526
89. RRIRLRPPRLPRPRPRPIEDPRP  0.0562
90. RRIRHRPPRLPRPRPRPGSGPRP  0.0563
91. RRIRERPPRLPRPRPRPTFVPRP  0.0579
92. RRIRVRPPRLPRPRPRPAMTPRP  0.0589
93. RRIRGRPPRLPRPRPRPMSIPRP  0.0628
94. RRIRTRPPRLPRPRPRPCFWPRP  0.0653
95. RRIRSRPPRLPRPRPRPNWQPRP  0.0694
96. RRIRQRPPRLPRPRPRPFHWPRP  0.0728
97. RRIRYRPPRLPRPRPRPAWRPRP  0.0762
98. RRIRNRPPRLPRPRPRPVMHPRP  0.077
99. RRIRPRPPRLPRPRPRPEIGPRP  0.0772
100. RRIRPRPPRLPRPRPRPFDMPRP  0.08
101. RRIRCRPPRLPRPRPRPIWQPRP  0.102
102. RRIRSRPPRLPRPRPRPCWRPRP  0.106
103. RRIRQRPPRLPRPRPRPARVPRP  0.109
104. RRIRHRPPRLPRPRPRPMMHPRP  0.117
105. RRIRWRPPRLPRPRPRPCGLPRP  0.123
106. RRIRKRPPRLPRPRPRPKVRPRP  0.131
107. RRIRDRPPRLPRPRPRPNPTPRP  0.135
108. RRIRARPPRLPRPRPRPQTKPRP  0.135
109. RRIRNRPPRLPRPRPRPLGTPRP  0.135
110. RRIRQRPPRLPRPRPRPDMHPRP  0.161
111. RRIRGRPPRLPRPRPRPSKAPRP  0.165
112. RRIRFRPPRLPRPRPRPQGRPRP  0.19
113. RRIRNRPPRLPRPRPRPPFCPRP  0.19
114. RRIRSRPPRLPRPRPRPQTQPRP  0.198
115. RRIRKRPPRLPRPRPRPGQGPRP  0.205
116. RRIRGRPPRLPRPRPRPCPHPRP  0.205
117. RRIRNRPPRLPRPRPRPMRGPRP  0.211
118. RRIRARPPRLPRPRPRPPDSPRP  0.212
119. RRIRCRPPRLPRPRPRPGPLPRP  0.213
120. RRIRWRPPRLPRPRPRPLTKPRP  0.23
121. RRIRARPPRLPRPRPRPQTCPRP  0.246
122. RRIRRRPPRLPRPRPRPTSQPRP  0.249
123. RRIRIRPPRLPRPRPRPLREPRP  0.255
124. RRIRGRPPRLPRPRPRPNWHPRP  0.27
125. RRIRRRPPRLPRPRPRPDPHPRP  0.296
126. RRIRLRPPRLPRPRPRPPSEPRP  0.321
127. RRIRARPPRLPRPRPRPMCSPRP  0.334
128. RRIRARPPRLPRPRPRPTRVPRP  0.343
129. RRIRRRPPRLPRPRPRPGSAPRP  0.378
130. RRIRHRPPRLPRPRPRPAQEPRP  0.381
131. RRIRWRPPRLPRPRPRPLSTPRP  0.383
132. RRIRKRPPRLPRPRPRPMMQPRP  0.405
133. RRIRARPPRLPRPRPRPDPCPRP  0.428
134. RRIRYRPPRLPRPRPRPVWGPRP  0.432
135. RRIRPRPPRLPRPRPRPQLCPRP  0.444
136. RRIRNRPPRLPRPRPRPVPAPRP  0.459
137. RRIRWRPPRLPRPRPRPLGPPRP  0.478
138. RRIRARPPRLPRPRPRPFMKPRP  0.528
139. RRIRKRPPRLPRPRPRPTQCPRP  0.567
140. RRIRSRPPRLPRPRPRPEQPPRP  0.591
141. RRIRVRPPRLPRPRPRPAMRPRP  0.6
142. RRIRKRPPRLPRPRPRPLAPPRP  0.65
143. RRIRSRPPRLPRPRPRPGRWPRP  0.657
144. RRIRVRPPRLPRPRPRPKFHPRP  0.678
145. RRIRSRPPRLPRPRPRPPLWPRP  0.704
146. RRIRWRPPRLPRPRPRPLPNPRP  0.783
147. RRIRGRPPRLPRPRPRPPTNPRP  0.866
148. RRIRGRPPRLPRPRPRPPKPPRP  0.919
149. RRIRDRPPRLPRPRPRPVGWPRP  0.945
150. RRIRGRPPRLPRPRPRPTQEPRP  1.38
